# Test results reported in patent publication US6642040B2, “Human cGMP-stimulated cyclic nucleotide phosphodiesterase” (The Board of Regents of the University of Washington, priority 1991, dated 2003).
# B1: p12.3.a: expression product of bovine brain 63 kDa CaM-PDE cDNA clone (SEQ ID NO: 27) (protein)
# chain: MELSPRSPPEMLESDCPSPLELKSAPSKKMWIKLRSLLRYMVKQLENGEVNIEELKKNLEYTASLLEAVYIDETRQILDTEDELQELRSDAVPSEVRDWLASTFTQQTRAKGPSEEKPKFRSIVHAVQAGIFVERMFRRTYTSVGPTYSTAVLNCLKNVDLWCFDVFSLNRAADDHALRTIVFELLTRHNLISRFKIPTVFLMTFLDALETGYGKYKNPYHNQIHAADVTQTVHCFLLRTGMVHCLSEIEVLAIIFAAAIHDYEHTGTTNSFHIQTKSECAILYNDRSVLENHHISSVFRMMQDDEMNIFINLTKDEFVELRALVIEMVLATDMSCHFQQVKSMKTALQQLERIDKSKALSLLLHAADISHPTKQWSVHSRWTKALMEEFFRQGDKEAELGLPFSPLCDRTSTLVAQSQIGFIDFIVEPTFSVLTDVAEKSVQPTGDDDSKSKNQPSFQWRQPSLDVEVGDPNPDVVSFRSTWTKYIQENKQKWKERAASGITNQMSIDELSPCEEEAPASPAEDEHNQNGNLD
# B2: pBBCGSPDE-7/CDM8: expression product of bovine brain cGS-PDE cDNA (SEQ ID NO: 43) (protein)
# chain: MGQACGHSILCRSQQYPAARPAEPRGQQVFLKPDEPPPPPQPCADSLQDALLSLGSVIDVAGLQQAVKEALSAVLPKVETVYTYLLDGESRLVCEEPPHELPQEGKVREAVISRKRLGCNGLGPSDLPGKPLARLVAPLAPDTQVLVIPLVDKEAGAVAAVILVHCGQLSDNEEWSLQAVEKHTLVALKRVQALQQRESSVAPEATQNPPEEAAGDQKGGVAYTDQDRKILQLCGELYDLDASSLQLKVLQYLQQETQASRCCLLLVSEDNLQLSCKVIGDKVLEEEISFPLTTGRLGQVVEDKKSIQLKDLTSEDMQQLQSMLGCEVQAMLCVPVISRATDQVVALACAFNKLGGDLFTDQDEHVIQHCFHYTSTVLTSTLAFQKEQKLKCECQALLQVAKNLFTHLDDVSVLLQEIITEARNLSNAEICSVFLLDQNELVAKVFDGGVVEDESYEIRIPADQGIAGHVATTGQILNIPDAYAHPLFYRGVDDSTGFRTRNILCFPIKNENQEVIGVAELVNKINGPWFSKFDEDLATAFSIYCGISIAHSLLYKKVNEAQYRSHLANEMMMYHMKVSDDEYTKLLHDGIQPVAAIDSNFASFTYTPRSLPEDDTSMAILSMLQDMNFINNYKIDCPTLARFCLMVKKGYRDPPYHNWMHAFSVSHFCYLLYKNLELTNYLEDMEIFALFISCMCHDLDHRGTNNSFQVASKSVLAALYSSEGSVMERHHFAQAIAILNTHGCNIFDHFSRKDYQRMLDLMRDIILATDLAHHLRIFKDLQKMAEVGYDRTNKQHHSLLLCLLMTSCDLSDQTKGWKTTRKIAELIYKEFFSQGDLEKAMGNRPMEMMDREKAYIPELQISFMEHIAMPIYKLLQDLFPKAAELYERVASNREHWTKVSHKFTIRGLPSNNSLDFLDEEYEVPDLDGARAPINGCCSLDAE
# B3: 59 kDa isozyme: 59 kDa CaM-PDE isozyme isolated from bovine heart (protein, UniProt P14100 1-530, looked up)
# Dual specificity …: MGSTATETEELENTTFKYLIGEQTEKMWQRLKGILRCLVKQLEKGDVNVIDLKKNIEYAASVLEAVYIDETRRLLDTDDELSDIQSDSVPSEVRDWLASTFTRKMGMMKKKSEEKPRFRSIVHVVQAGIFVERMYRKSYHMVGLAYPEAVIVTLKDVDKWSFDVFALNEASGEHSLKFMIYELFTRYDLINRFKIPVSCLIAFAEALEVGYSKYKNPYHNLIHAADVTQTVHYIMLHTGIMHWLTELEILAMVFAAAIHDYEHTGTTNNFHIQTRSDVAILYNDRSVLENHHVSAAYRLMQEEEMNVLINLSKDDWRDLRNLVIEMVLSTDMSGHFQQIKNIRNSLQQPEGLDKAKTMSLILHAADISHPAKSWKLHHRWTMALMEEFFLQGDKEAELGLPFSPLCDRKSTMVAQSQIGFIDFIVEPTFSLLTDSTEKIIIPLIEEDSKTKTPSYGASRRSNMKGTTNDGTYSPDYSLASVDLKSFKNSLVDIIQQNKERWKELAAQGEPDPHKNSDLVNAEEKHAETHS
# B4: pCAM-40: expression product of plasmid pCAM-40, full length bovine brain 61 kDa CaM-PDE (SEQ ID NO: 6) (protein)
# chain: MGSTATETEELENTTFKYLIGEQTEKMWQRLKGILRCLVKQLEKGDVNVIDLKKNIEYAASVLEAVYIDETRRLLDTDDELSDIQSDSVPSEVRDWLASTFTRKMGMMKKKSEEKPRFRSIVHVVQAGIFVERMYRKSYHMVGLAYPEAVIVTLKDVDKWSFDVFALNEASGEHSLKFMIYELFTRYDLINRFKIPVSCLIAFAEALEVGYSKYKNPYHNLIHAADVTQTVHYIMLHTGIMHWLTELEILAMVFAAAIHDYEHTGTTNNFHIQTRSDVAILYNDRSVLENHHVSAAYRLMQEEEMNVLINLSKDDWRDLRNLVIEMVLSTDMSGHFQQIKNIRNSLQQPEGLDKAKTMSLILHAADISHPAKSWKLHHRWTMALMEEFFLQGDKEAELGLPFSPLCDRKSTMVAQSQIGFIDFIVEPTFSLLTDSTEKIIIPLIEEDSKTKTPSYGASRRSNMKGTTNDGTYSPDYSLASVDLKSFKNSLVDIIQQNKERWKELAAQGEPDPHKNSDLVNAEEKHAETHS
# Columns and labels:
# cAMP and cGMP hydrolysis [1] = experiment: CaM-dependent PDE activity of homogenates of COS-7 cells transfected with 63 kDa CaM-PDE cDNA; format: biochemical, bovine; conditions: COS-7 cell homogenates
# Procedure: COS cells were scraped from the plates and homogenized in a buffer containing 40 mM Tris-HCl (pH=7.5), 5 mM EDTA, 15 mM benzamidine, 15 mM beta-mercaptoethanol, 1 μg per ml pepstatin A and 1 μg per ml peupeptin using a Dounce homogenizer (1 ml per 100 mm plate). Homogenates were assayed for PDE activity according to the procedures of Hanson et al., Proc. Nat'l. Acad. Sci. U.S.A., 79:2788-2792 (1982), using [^3H]cGMP as the substrate. Reactions were carried out at 300 for 10 minutes in a buffer containing 20 mM Tris-HCl (pH=7.5), 20 mM imidazole (pH=7.5), 3 mM MgCl2, 15 mM Mg acetate, 0.2 mg per ml BSA and 1 μM ^3H-cAMP with either 2 mM EGTA or 0.2 mM CaCl2 and 4 μg per ml CaM. Assays were stopped by incubating the tubes in a 900 water bath for 1 minute. After cooling, 10 μl of 2.5 mg per ml snake venom was added to each assay and incubated at 370 for 5 minutes. […] Samples were counted for 1 minute using a Packard Model 1600TR scintillation counter. Specific cyclic nucleotide hydrolytic activity was expressed as picomoles cAMP or cGMP hydrolyzed per minute per mg protein. […]
# COS-7 cells were transfected with the p12.3.a/CDM8 construct or mock transfected with the CDM8 vector alone using the DEAE-dextran method as described in Example 1. […] CaM-dependent and independent activities were determined as in Example 1.
# cGS-PDE activity = cGS-PDE activity of membrane and supernatant fractions of transfected COS-7 cells; format: biochemical, bovine
# Source text: Transient expression of the CGS-PDE cDNA in COS-7 cells was accomplished as in Example I. A 4.2 kb fragment of p3CGS-5 was isolated using HindIII and NotI and was inserted into plasmid pCDM8, which had been digested with the same enzymes. The character of products produced in COS-7 cells transformed with the p3CGS-5/pCDM8 construct is discussed in Example V, infra.
# For transient expression in COS-7 cells, a 3.8 kb fragment of pBBCGSPDE-7 was isolated using HindIII and NotI and inserted into plasmid pCDM8 which had been cut with HindIII and NotI restriction endonucleases. The recombinant pBBCGSPDE-7/CDM8 construct was used to transiently transfect COS-7 cells. The properties of the pBBCGSPDE-7/CDM8 construct and the p3CGS-5/CDM8 construct prepared in Example IV products were subsequently compared. Membrane and supernatant fractions were prepared from extracts of transfected COS-7 cells and assayed for cGS-PDE activity. […] However, a 10-fold greater percentage of total cGS-PDE activity was detected in membranes from COS-7 cell extracts transfected with the pBBCGSPDE-7/CDM8 construct than in membranes prepared from p3CGS-5/CDM8-transfected COS-7 cells.
# calmodulin = calmodulin (Homo sapiens, UniProt P0DP23); conditions: cited from earlier work
# cAMP and cGMP hydrolysis [2] = experiment: PDE activity of homogenates of COS-7 cells transfected with 61 kDa CaM-PDE cDNA; format: biochemical, bovine; conditions: COS-7 cell extracts
molecule,measurement,setting,value
B1,increase in CaM-stimulated cAMP phosphodiesterase activity over basal levels,cAMP and cGMP hydrolysis [1],15 fold
same,increase in CaM-stimulated cGMP phosphodiesterase activity over basal levels,cAMP and cGMP hydrolysis [1],12 fold
B2,"percentage of total cGS-PDE activity detected in membranes, relative to p3CGS-5/CDM8-transfected cells",cGS-PDE activity; membranes from COS-7 cell extracts,10 fold
same,cGS-PDE activity in COS-7 cell extracts,cGS-PDE activity; most of the activity in supernatant fractions,produced cGS-PDE activities
B3,affinity for calmodulin relative to the 61 kDa brain isozyme,calmodulin,10-20 fold
B4,cAMP and cGMP hydrolytic activities compared to mock transfected cells,cAMP and cGMP hydrolysis [2]; in the presence of EGTA,significantly greater
same,effect of calcium and CaM on cAMP and cGMP hydrolysis,cAMP and cGMP hydrolysis [2]; in the presence of calcium and CaM,stimulation
